The source of these data is patent US12522635B2, “Amyloid peptide variants” (Loyola Marymount University, priority 2019, dated 2026).

One data set concerns RIN-m cells. Put plainly: MTT viability assay, peptide alone or mixed with hIAPP. The class given is cell-based. Particulars: for toxicity of peptide to cells: peptide alone, MTT assay, pancreatic (RIN-m) cells; for rescue / protection of cells from hIAPP toxicity (words): hIAPP mixed with peptide 1:1, MTT assay. The source says: Cytoprotection can likewise be measured by a number of assays known to the art. One such assay is the MTT assay, which is a colorimetric assay for assessing cell metabolic activity. NAD(P)H-dependent cellular oxidoreductase enzymes in the cytosolic compartment of a cell reduces the tetrazolium dye MTT 3-(4,5-dimethylthiazol-2-yl)-2,5-diphenyltetrazolium bromide to an insoluble form, formazan, which has a purple color. The reduction of MTT (and other tetrazolium dyes) depends on the cellular metabolic activity, so a loss of color in the course of performing an MTT assay indicates low metabolic activity, and is thus an indicator of cell damage and death.
To test cell viability, a MTT colorimetric assay measuring the conversion of yellow tetrazolium salt into purple formazan crystal catalyzed by a mitochondrial reductase was used. Cell viability studies were performed using RIN-m cells (ATCC, CRL-2057). An equal number of RIN-m cells were plated in triplicate and incubated overnight in 96-well plates. The next day, fresh RPMI-1640 with phenol red supplemented with 10% FBS was added to cells. Hexafluoroisopropanol (HFIP) was removed from each individual human and animal IAPP using a centrivap concentrator (LabOnco). All IAPP peptide samples were re-suspended in RPMI-1640 with 10% FBS. To ensure even re-suspension, each resulting IAPP-containing vial was scraped with a pipette tip six times and vortexed (Vortex Genie Mixer) for 15 seconds. The whole process, from drying each IAPP peptide to adding each IAPP peptide to the cells was uniform to ensure that each sample was incubated for an equal amount of time with each IAPP peptide. IAPP peptides were added to cells and incubated for 46 hours at 37° C. Post-incubation, the media in each well was replaced by fresh DMEM/F-12 without phenol red. MTT (3-(4,5-dimethyl-2-thiazolyl)-2,5-diphenyl-tetrazolium bromide) was added into each well and incubated at 37° C. for 2 hours. Formazan crystals, formed on the bottom of the wells, were re-suspended in solubilization buffer (20% SDS and 50% dimethylformamide). The absorbance in each well was taken at 570 nm using a Multiskan FC Microplate Photometer (Thermos Fisher Scientific). Media were obtained from ATCC. All incubations took place in a water jacketed incubator in 5% carbon dioxide at 37° C. (Shell Lab).
The MTT viability assay was used to measure cell viability of RIN-m cells upon addition of hIAPP alone, the addition of each animal IAPP peptide alone, and hIAPP mixed with each animal IAPP peptide (results shown in FIG. 5). RIN-m cells alone were used as a control and set to 100% cell viability. […] Addition of raccoon IAPP to hIAPP increased the cell viability from 55% to an average of 72% (p=0.005705). Addition of chicken IAPP variant to hIAPP increased cell viability to an average of 76% (p=0.013556).
Background: Formazan colour is commonly taken as a measure of viable cells.

For data set [1], the target named is T1, human IAPP (hIAPP) (Homo sapiens, UniProt P10997).
T1 construct: This 37 amino acid polypeptide is co-secreted from pancreatic β-islet cells with insulin
T1 sequence (P10997 34-70 limits assumed): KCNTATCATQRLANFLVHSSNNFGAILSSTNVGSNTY
As to the kind of experiment: Thioflavin T binding assay of hIAPP aggregation when mixed with IAPP peptides. The class given is biochemical. Particulars: for inhibition of hIAPP aggregation, thioflavin T binding: hIAPP mixed with peptide, incubated at 37° C. with shaking. From the text: Any of a number of assays known to the art can be used to evaluate the ability of IAPP peptides to inhibit hIAPP aggregation and/or protect cells from hIAPP toxicity. Thioflavin T (ThT) binding is one such technique for identifying amyloid formation in real time. Human IAPP is known to bind thioflavin T during aggregation and amyloid formation, and upon binding to amyloid fibrils ThT will give a strong fluorescence signal at approximately 482 nm when excited at 450 nm. ThT fluorescence correlates linearly with amyloid concentration in a sample and therefore can be used to determine the amount of aggregation in a sample. This technique can therefore be used for identifying substances with amyloid-inhibiting potential when such substances are mixed with human IAPP under conditions known to result in the formation of aggregates by hIAPP. Determining the extent of aggregation can also be determined using other techniques, such as Atomic Force Microscopy (AFM), which can provide information about particle dimensions, shape, and substructure with nanometer resolution. In the foregoing assays and others that can be used by one of skill in the art, significant inhibition can be determined using a t-test by measuring the difference between hIAPP and hIAPP combined with an IAPP peptide.
To identify IAPP peptides having inhibitory potential against hIAPP aggregation, the peptides shown in FIG. 1 from a number of species (cow, degu, guinea pig, horse, pig, rat, and sheep[…]) were mixed with hIAPP at a 2:1 molar ratio of animal peptide to hIAPP and incubated under conditions known to promote hIAPP aggregation and fibril formation. IAPP alone, or hIAPP mixed with an animal IAPP, was pipetted into a glass tube and the HFIP was removed under speed-vacuum. The resulting peptide sample was dissolved in 20 mM Tris buffer pH 7.4.
37 μM human IAPP was mixed with 75 μM of each indicated animal IAPP. Aggregation was initiated by incubating samples at 37° C. with shaking at 200 rpm for 40 minutes. At indicated time points, a 17 μL aliquot of each sample was mixed with 663 μL of 50.0 μM thioflavin T in 20 mM Tris buffer (pH 7.4). Thioflavin T fluorescence emission was then recorded at 488 nm using a Hitachi F-7000 fluorescence spectrophotometer.
After 40 minutes, these samples were monitored for their ability to bind thioflavin T (see FIG. 2) and their ability to form fibrils as identified with atomic force microscopy.
Human IAPP (37 μM) was mixed with each of the indicated Weddell seal variants (at 75 μM) and incubated for 30 minutes at 37° C. with shaking at 200 rpm. The Weddell seal IAPP peptides were likewise subjected to atomic force microscopy as described in Example 2.
Human IAPP was mixed with each of the indicated raccoon variants and incubated at 37° C. with shaking.
Human IAPP was mixed with each of the indicated chicken variants and incubated at 37° C. with shaking. […] However, it was able to protect cells in MTT assays, so it is believed to inhibit formation of toxic oligomers while having a lesser effect on inhibiting the formation of fibers (which are less toxic and less able to bind ThT).
Human IAPP was mixed with each of the indicated chicken variants and incubated at 37° C. with shaking.

Data set [2] concerns the target T1, human IAPP (hIAPP). As to the kind of experiment: Atomic force microscopy (AFM) of hIAPP fibril formation when mixed with IAPP peptides. The class given is biochemical. To be noted: for inhibition of hIAPP fibril formation, AFM: 37 μM hIAPP and 75 μM peptide, 37° C. with shaking for 40 minutes; for inhibition of hIAPP fiber formation: FIG. 22: 37 μM hIAPP mixed with 37 μM peptide, 37° C. with shaking for 30 minutes. As for the experimental part: Samples labeled with hIAPP contained 40 μM hIAPP. The sample with pramlintide and hIAPP contained a 2:1 molar mixture (80 μM Pramlintide mixed with 40 μM hIAPP). The samples with raccoon IAPP and Pramlintide alone contained 40 μM of the indicated peptides. Each sample was incubated for 40 minutes at 37° C. with shaking; conditions known to promote hIAPP amyloid formation. All scans show raw data with no flattening and are […].
Each sample contained 37 μM hIAPP and 75 μM of the indicated peptide. Samples were incubated at 37° C. with shaking for 40 minutes. All scans show raw data with no flattening and are […].
Each sample contained 37 μM hIAPP mixed with 37 μM of the indicated peptide. Samples were incubated at 37° C. with shaking for 30 minutes before depositing each sample onto freshly cleaved mica.
Samples of hIAPP with or without animal IAPP were prepared as described in Example 1 and were then incubated with shaking at 37° C. for 40 minutes. After this incubation, 17 μL of each sample was deposited onto freshly cleaved mica. Samples were incubated for 5 minutes at room temperature before washing with 200 μL sterile water. After drying, the samples were scanned using an MFP-3D atomic force microscope (Asylum Research) set on A/C mode and a 240 m silicon cantilever (Olympus).
Many of the animal IAPP variants are known to likewise form fibrils and yield amyloid-plaques when scanned via AFM. […] This is in spite of the fact that all of these IAPP peptides (except polar bear IAPP) are known to aggregate and form fibrils themselves under these or similar conditions

“KCNTATCATQRLANFLVHSSNNLGAILSPTNVGSNTY (KTATCATQRLANFLVHSSNNLGAILSPTNVGSNTY; Leptonychotes weddellii mutation) [WS_LP]”: in the data set on RIN-m cells, the “toxicity of peptide to cells” value is “toxic to cells, with and without addition of hIAPP”. In addition, in the data set with human IAPP (hIAPP) [1], the “inhibition of hIAPP aggregation, thioflavin T binding” value (“inhibition … thioflavin T binding” for short) is recorded as “inhibited hIAPP aggregation”. For the same sequence, the “inhibition of hIAPP fibril formation, AFM” value (“inhibition … AFM” for short) with human IAPP (hIAPP) [2] is listed as “strong inhibitors of hIAPP fiber formation”.

Consider “KCNTATCATQRLANFLVRSGNLFGAILSPTNVGSNTY (listed as Ursus maritimus) [polar bear IAPP]”, for which the “rescue / protection of cells from hIAPP toxicity (words)” value (shortened to “rescue / protection of cells”) in the data set with RIN-m cells was “not capable of protecting RIN-m cells from the toxic effects of hIAPP”. Moreover, the “inhibition of hIAPP aggregation (summary statement)” value with human IAPP (hIAPP) [1] (peptide mixed with hIAPP, no single assay (thioflavin T and AFM)) is reported as “able to inhibit such aggregation”. In the data set with human IAPP (hIAPP) [2], the “inhibition … AFM” value is given as “significant ability to prevent fiber formation”.

In the case of “KCNTATCATQRLANFLVRSSNNLGAILSSTNVGSNTY (Leptonychotes weddellii mutation) [WS_RL]”, the “rescue / protection of cells” value in the data set on RIN-m cells is on record as “rescued cells from hIAPP toxicity”. Further, in the data set with human IAPP (hIAPP) [1], the “inhibition … thioflavin T binding” value is listed as “inhibited hIAPP aggregation”. Also, in the data set with human IAPP (hIAPP) [2], the “inhibition … AFM” value is “strong inhibitors of hIAPP fiber formation”.

“KCNTATCVTQRLADFLVRSSSNIGAIY (Gallus gallus truncation) [C1-27]”: the “rescue / protection of cells” value in the data set on RIN-m cells is reported as “rescued cells from hIAPP-induced cytotoxicity”. Also, the “inhibition … thioflavin T binding” value in the data set with human IAPP (hIAPP) [1] is recorded as “inhibited hIAPP aggregation”. In addition, the “inhibition … AFM” value with human IAPP (hIAPP) [2] was “did”.

As to “KCNTATCVTQRLADFLVRSSSNIGAIYSP (Gallus gallus truncation) [C1-29]”, in the data set on RIN-m cells, the “rescue / protection of cells” value is listed as “rescued cells from hIAPP-induced cytotoxicity”. Further, in the data set with human IAPP (hIAPP) [1], the “inhibition … thioflavin T binding” value was “inhibited hIAPP aggregation”. Besides, the “inhibition … AFM” value with human IAPP (hIAPP) [2] was “amyloid fibers were formed and did”.

“KCNTATCVTQRLADFLVRSSSNLGAIYSPTNVGSNTY (Gallus gallus mutation) [Ch_I22L]”: in the data set on RIN-m cells, the “rescue / protection of cells” value is “rescued cells from hIAPP-induced cytotoxicity” and the “toxicity of peptide to cells” value is “minimal inherent toxicity”. In addition, the “rescue / protection of cells” value in the data set with RIN-m cells (listed as Ch-122L) was “rescue cells from hIAPP toxicity”. Also, the “inhibition … thioflavin T binding” value with human IAPP (hIAPP) [1] is “inhibited hIAPP aggregation”. The “inhibition of hIAPP fiber formation” value with human IAPP (hIAPP) [2] was “able to inhibit hIAPP fiber formation”.

As to “KCNTATCVTQRLANFLLRSSNNLGAIL (Procyon lotor truncation) [R1-27]”, the “rescue / protection of cells” value in the data set with RIN-m cells is listed as “rescued cells from hIAPP-induced cytotoxicity”. In the data set with human IAPP (hIAPP) [1], the “inhibition … thioflavin T binding” value is given as “inhibited hIAPP aggregation”. In the data set with human IAPP (hIAPP) [2], the “inhibition … AFM” value is listed as “did”.

For “KCNTATCVTQRLANFLLRSSNNLGAILSP (Procyon lotor truncation) [R1-29]”, in the data set on RIN-m cells, the “rescue / protection of cells” value is “rescued cells from hIAPP-induced cytotoxicity”. The “inhibition … thioflavin T binding” value in the data set with human IAPP (hIAPP) [1] is on record as “inhibited hIAPP aggregation”. Besides, the “inhibition … AFM” value with human IAPP (hIAPP) [2] is recorded as “did”.

For the sequence “KCNTATCVTQRLANFLLRSSNNLGAIYSPTNVGSNTY (Procyon lotor mutation) [Rac_L26Y]”, the “rescue / protection of cells” value is given as “improved cell viability in the presence of hIAPP” in the data set with RIN-m cells and “rescue cells from hIAPP toxicity” in the data set with RIN-m cells (listed as Rac-L26Y). Moreover, the “toxicity of peptide to cells” value in the data set with RIN-m cells is recorded as “minimal inherent toxicity”. Further, the “inhibition … thioflavin T binding” value with human IAPP (hIAPP) [1] was “inhibited hIAPP aggregation”. In addition, the “inhibition of hIAPP fiber formation” value in the data set with human IAPP (hIAPP) [2] is given as “stood out for its ability to inhibit hIAPP fiber formation”.
